According to US12371675B2, “Process and microorganism for synthesis of adipic acid from carboxylic acids” (THE GOVERNING COUNCIL OF THE UNIVERSITY OF TORONTO, priority 2015, dated 2025):

Columns and labels:
[1] = CAR reductase activity, NADPH oxidation at 340 nm; assay type: biochemical; settings: ND = no activity was detected
Description: Reductase activity was measured spectrophotometrically by following the oxidation of NADPH depletion at 340 nm.
It has been shown that the N. iowensis CAR has a broad substrate range, though its maximal activity was usually observed with aromatic substrates such as benzoic and cinnamic acids. CARs gene sequences homologues to the N. iowensis CAR (Uniprot number: Q6RKB1), were selected from GenBank database. Based on presence of adenylation (AMP-binding PF00501) and reduction (NAD-binding PF07993) domains accompanied with phosphopantetheinyl binding motif (PF00530) 13 CAR genes (mostly from Mycobacterium) were cloned and expressed in E. coli. (Table 4). As CAR activation enzymes, phosphopantetheinyl transferases (PPTs) from E. coli (P19925) and Bacillus subtilis (P39135), were used which were co-expressed with the selected CAR genes from a separate plasmid. Using 1-liter E. coli cultures with overnight induction by IPTG, 12 soluble CAR proteins were purified using affinity chromatography on a Ni-NTA resin.

[2] = In vitro biotransformation by CARs coupled with aldehyde reductase PP_3370; assay type: biochemical; settings: Table 12 title: 10 mM adipic acid (12 h) in vitro, CARs coupled with PP3370
[3] = as above; assay type: biochemical; settings: Table 12 title: 10 mM 4-hydroxybutyric acid (12 h) in vitro, CARs coupled with PP3370
[4] = In vivo whole cell biotransformation by E. coli expressing CARs; assay type: cell-based; settings: 24 h; for In vivo conversion efficiency (%) to: 1,4-butanediol: 10 mM 4-hydroxybutyric acid; for In vivo conversion efficiency (%) to: 1,6-hexanediol / In vivo conversion efficiency (%) to: 6-hydroxyhexanoic acid: 10 mM adipic acid
Description: E. coli cells expressing recombinant CARs with BSU03570 phosphopantetheinyl transferase were grown on LB media with […], supplemented with 2% glycerol aerobically on 37° C., until the culture optical density (OD 600 nm) reached 0.6-0.8. At this point protein expression was induced with 0.4 mM IPTG and substrate (adipic acid or 4-hydroxybutyric acid) for final 10 mM concentration was added. Samples were taken at 6 h, 24 h and 48 h, centrifuged, supernatant was filtered through 10 kDa centrifugal filters. Products were analyzed with HPLC or LC-MS. Negative control experiments were performed using E. coli cells harboring empty plasmids. All results of in vivo experiments are means from at least two independent determinations.

[5] = OYE hydrogenation activity screen, NADPH oxidation at 340 nm; assay type: biochemical; settings: 1 mM substrate, 0.25 mM NADPH, 2.5 μg protein; cut-off 0.05 U/mg protein; ND = not detected
Method in brief: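 Purified OYEs (2.5 μg) were incubated anaerobically for 20 min at room temperature with 1 mM substrate and 0.25 mM NADPH in 50 mM potassium phosphate pH 7.0, 10 mM NaCl. Activity was followed as NADPH oxidation by the absorbance decrease at 340 nm (ε340=6,200/M·cm).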

[6] = Whole-cell biotransformation with E. coli strains over-expressing OYEs; assay type: cell-based; settings: E. coli over-expressing OYE

B1: MAP_1040c: carboxylate reductase (CAR) from M. paratuberculosis ATCC BAA-968 (protein)
chain: MSTATHDERLDRRVHELIATDPQFAAAQPDPAITAALEQPGLRLPQIIRTVLDGYADRPALGQRVVEFVTDAKTGRTSAQLLPRFETITYSEVAQRVSALGRALSDDAVHPGDRVCVLGFNSVDYATIDMALGAIGAVSVPLQTSAAISSLQPIVAETEPTLIASSVNQLSDAVQLITGAEQAPTRLVVFDYHPQVDDQREAVQDAAARLSSTGVAVQTLAELLERGKDLPAVAEPPADEDSLALLIYTSGSTGAPKGAMYPQSNVGKMWRRGSKNWFGESAASITLNFMPMSHVMGRSILYGTLGNGGTAYFAARSDLSTLLEDLELVRPTELNFVPRIWETLYGEFQRQVERRLSEAGDAGERRAVEAEVLAEQRQYLLGGRFTFAMTGSAPISPELRNWVESLLEMHLMDGYGSTEAGMVLFDGEIQRPPVIDYKLVDVPDLGYFSTDRPHPRGELLLRTENMFPGYYKRAETTAGVFDEDGYYRTGDVFAEIAPDRLVYVDRRNNVLKLAQGEFVTLAKLEAVFGNSPLIRQIYVYGNSAQPYLLAVVVPTEEALASGDPETLKPKIADSLQQVAKEAGLQSYEVPRDFIIETTPFSLENGLLTGIRKLAWPKLKQHYGERLEQMYADLAAGQANELAELRRNGAQAPVLQTVSRAAGAMLGSAASDLSPDAHFTDLGGDSLSALTFGNLLREIFDVDVPVGVIVSPANDLAAIASYIEAERQGSKRPTFASVHGRDATVVRAADLTLDKFLDAETLAAAPNLPKPATEVRTVLLTGATGFLGRYLALEWLERMDMVDGKVIALVRARSDEEARARLDKTFDSGDPKLLAHYQQLAADHLEVIAGDKGEANLGLGQDVWQRLADTVDVIVDPAALVNHVLPYSELFGPNALGTAELIRLALTSKQKPYTYVSTIGVGDQIEPGKFVENADIRQMSATRAINDSYANGYGNSKWAGEVLLREAHDLCGLPVAVFRCDMILADTTYAGQLNLPDMFTRLMLSLVATGIAPGSFYELDADGNRQRAHYDGLPVEFIAAAISTLGSQITDSDTGFQTYHVMNPYDDGVGLDEYVDWLVDAGYSIERIADYSEWLRRFETSLRALPDRQRQYSLLPLLHNYRTPEKPINGSIAPTDVFRAAVQEAKIGPDKDIPHVSPPVIVKYITDLQLLGLL
Activity [U/mg protein] 4-hydroxybutyric acid, 5 mM [1]: 0.014 ± 0.006 U/mg protein
Activity [U/mg protein] adipic acid, 5 mM [1]: 0.053 ± 0.006 U/mg protein
In vitro conversion efficiency % to: 1,6-hexanediol [2]: 15.4 ± 1.7%
In vitro conversion efficiency % to: 6-hydroxyhexanoic acid [2]: 5.8 ± 0.2%
In vivo conversion efficiency (%) to: 1,4-butanediol [3]: 81.6 ± 18.3%
In vivo conversion efficiency (%) to: 1,4-butanediol [4]: 81.6 ± 18.3%
In vivo conversion efficiency (%) to: 1,6-hexanediol [4]: 15.4 ± 1.7%
In vivo conversion efficiency (%) to: 6-hydroxyhexanoic acid [4]: 5.8 ± 0.2%

B2: EC5625: OYE protein from Escherichia coli K12 (protein)
chain: MSSEKLYSPLKVGAITAANRIFMAPLTRLRSIEPGDIPTPLMAEYYRQRASAGLIISEATQISAQAKGYAGAPGIHSPEQIAAWKKITAGVHAENGHMAVQLWHTGRISHASLQPGGQAPVAPSALSAGTRTSLRDENGQAIRVETSMPRALELEEIPGIVNDFRQAIANAREAGFDLVELHSAHGYLLHQFLSPSSNHRTDQYGGSVENRARLVLEVVDAGIEEWGADRIGIRVSPIGTFQNTDNGPNEEADALYLIEQLGKRGIAYLHMSEPDWAGGEPYTDAFREKVRARFHGPIIGAGAYTVEKAETLIGKGLIDAVAFGRDWIANPDLVARLQRKAELNPQRAESFYGGGAEGYTDYPTL
Activity [U/mg protein] 2-cyclohexen-1-one [5]: 0.18 U/mg protein
hydrogenation of 2-hexenedioic acid into adipic acid [6]: no hydrogenation

B3: MSMEI_5586: carboxylate reductase (CAR) from M. smegmatis ATCC 700084 (protein)
chain: MHQLTVTGMNICEVQRLFPRMTSDVHDATDGVTETALDDEQSTRRIAELYATDPEFAAAAPLPAVVDAAHKPGLRLAEILQTLFTGYGDRPALGYRARELATDEGGRTVTRLLPRFDTLTYAQVWSRVQAVAAALRHNFAQPIYPGDAVATIGFASPDYLTLDLVCAYLGLVSVPLQHNAPVSRLAPILAEVEPRILTVSAEYLDLAVESVRDVNSVSQLVVFDHHPEVDDHRDALARAREQLAGKGIAVTTLDAIADEGAGLPAEPIYTADHDQRLAMILYTSGSTGAPKGAMYTEAMVARLWTMSFITGDPTPVINVNFMPLNHLGGRIPISTAVQNGGTSYFVPESDMSTLFEDLALVRPTELGLVPRVADMLYQHHLATVDRLVTQGADELTAEKQAGAELREQVLGGRVITGFVSTAPLAAEMRAFLDITLGAHIVDGYGLTETGAVTRDGVIVRPPVIDYKLIDVPELGYFSTDKPYPRGELLVRSQTLTPGYYKRPEVTASVFDRDGYYHTGDVMAETAPDHLVYVDRRNNVLKLAQGEFVAVANLEAVFSGAALVRQIFVYGNSERSFLLAVVVPTPEALEQYDPAALKAALADSLQRTARDAELQSYEVPADFIVETEPFSAANGLLSGVGKLLRPNLKDRYGQRLEQMYADIAATQANQLRELRRAAATQPVIDTLTQAAATILGTGSEVASDAHFTDLGGDSLSALTLSNLLSDFFGFEVPVGTIVNPATNLAQLAQHIEAQRTAGDRRPSFTTVHGADATEIRASELTLDKFIDAETLRAAPGLPKVTTEPRTVLLSGANGWLGRFLTLQWLERLAPVGGTLITIVRGRDDAAARARLTQAYDTDPELSRRFAELADRHLRVVAGDIGDPNLGLTPEIWHRLAAEVDLVVHPAALVNHVLPYRQLFGPNVVGTAEVIKLALTERIKPVTYLSTVSVAMGIPDFEEDGDIRTVSPVRPLDGGYANGYGNSKWAGEVLLREAHDLCGLPVATFRSDMILAHPRYRGQVNVPDMFTRLLLSLLITGVAPRSFYIGDGERPRAHYPGLTVDFVAEAVTTLGAQQREGYVSYDVMNPHDDGISLDVFVDWLIRAGHPIDRVDDYDDWVRRFETALTALPEKRRAQTVLPLLHAFRAPQAPLRGAPEPTEVFHAAVRTAKVGPGDIPHLDEALIDKYIRDLREFGLI
Activity [U/mg protein] 4-hydroxybutyric acid, 5 mM [1]: 0.058 ± 0.033 U/mg protein
Activity [U/mg protein] adipic acid, 5 mM [1]: 0.017 ± 0.005 U/mg protein
In vitro conversion efficiency % to: 1,6-hexanediol [2]: 10.2 ± 3.4%
In vitro conversion efficiency % to: 6-hydroxyhexanoic acid [2]: 30.3 ± 0.4%
In vivo conversion efficiency (%) to: 1,4-butanediol [3]: 78.4 ± 6.2%
In vivo conversion efficiency (%) to: 1,4-butanediol [4]: 78.4 ± 6.2%
In vivo conversion efficiency (%) to: 1,6-hexanediol [4]: 10.2 ± 3.4%
In vivo conversion efficiency (%) to: 6-hydroxyhexanoic acid [4]: 30.3 ± 0.4%

B4: MSMEG_2956: carboxylate reductase (CAR) from M. smegmatis ATCC 700084 (protein)
chain: MTIETREDRFNRRIDHLFETDPQFAAARPDEAISAAAADPELRLPAAVKQILAGYADRPALGKRAVEFVTDEEGRTTAKLLPRFDTITYRQLAGRIQAVTNAWHNHPVNAGDRVAILGFTSVDYTTIDIALLELGAVSVPLQTSAPVAQLQPIVAETEPKVIASSVDFLADAVALVESGPAPSRLVVFDYSHEVDDQREAFEAAKGKLAGTGVVVETITDALDRGRSLADAPLYVPDEADPLTLLIYTSGSTGTPKGAMYPESKTATMWQAGSKARWDETLGVMPSITLNFMPMSHVMGRGILCSTLASGGTAYFAARSDLSTFLEDLALVRPTQLNFVPRIWDMLFQEYQSRLDNRRAEGSEDRAEAAVLEEVRTQLLGGRFVSALTGSAPISAEMKSWVEDLLDMHLLEGYGSTEAGAVFIDGQIQRPPVIDYKLVDVPDLGYFATDRPYPRGELLVKSEQMFPGYYKRPEITAEMFDEDGYYRTGDIVAELGPDHLEYLDRRNNVLKLSQGEFVTVSKLEAVFGDSPLVRQIYVYGNSARSYLLAVVVPTEEALSRWDGDELKSRISDSLQDAARAAGLQSYEIPRDFLVETTPFTLENGLLTGIRKLARPKLKAHYGERLEQLYTDLAEGQANELRELRRNGADRPVVETVSRAAVALLGASVTDLRSDAHFTDLGGDSLSALSFSNLLHEIFDVDVPVGVIVSPATDLAGVAAYIEGELRGSKRPTYASVHGRDATEVRARDLALGKFIDAKTLSAAPGLPRSGTEIRTVLLTGATGFLGRYLALEWLERMDLVDGKVICLVRARSDDEARARLDATFDTGDATLLEHYRALAADHLEVIAGDKGEADLGLDHDTWQRLADTVDLIVDPAALVNHVLPYSQMFGPNALGTAELIRIALTTTIKPYVYVSTIGVGQGISPEAFVEDADIREISATRRVDDSYANGYGNSKWAGEVLLREAHDWCGLPVSVFRCDMILADTTYSGQLNLPDMFTRLMLSLVATGIAPGSFYELDADGNRQRAHYDGLPVEFIAEAISTIGSQVTDGFETFHVMNPYDDGIGLDEYVDWLIEAGYPVHRVDDYATWLSRFETALRALPERQRQASLLPLLHNYQQPSPPVCGAMAPTDRFRAAVQDAKIGPDKDIPHVTADVIVKYISNLQMLGLL
Activity [U/mg protein] adipic acid, 5 mM [1]: 0.078 ± 0.001 U/mg protein
In vitro conversion efficiency % to: 1,6-hexanediol [2]: 27.7 ± 10.3%
In vitro conversion efficiency % to: 6-hydroxyhexanoic acid [2]: 34.2 ± 9.1%
In vivo conversion efficiency (%) to: 1,4-butanediol [3]: 59.4 ± 7.3%
In vivo conversion efficiency (%) to: 1,4-butanediol [4]: 59.4 ± 7.3%
In vivo conversion efficiency (%) to: 1,6-hexanediol [4]: 27.7 ± 10.3%
In vivo conversion efficiency (%) to: 6-hydroxyhexanoic acid [4]: 34.2 ± 9.1%
